Results reported in IntAct's records for PubMed 17392788.

B1: "Lethal(2) giant larvae protein homolog SRO7" (Saccharomyces cerevisiae), Q12038 (parent)
chain: MFGSKRLKNVKEAFKSLKGQNSETPIENSKASFKSKNSKTSTISKDAKSSSSLKIPISSNNKNKIFSLAETNKYGMSSKPIAAAFDFTQNLLAIATVTGEVHIYGQQQVEVVIKLEDRSAIKEMRFVKGIYLVVINAKDTVYVLSLYSQKVLTTVFVPGKITSIDTDASLDWMLIGLQNGSMIVYDIDRDQLSSFKLDNLQKSSFFPAARLSPIVSIQWNPRDIGTVLISYEYVTLTYSLVENEIKQSFIYELPPFAPGGDFSEKTNEKRTPKVIQSLYHPNSLHIITIHEDNSLVFWDANSGHMIMARTVFETEINVPQPDYIRDSSTNAAKISKVYWMCENNPEYTSLLISHKSISRGDNQSLTMIDLGYTPRYSITSYEGMKNYYANPKQMKIFPLPTNVPIVNILPIPRQSPYFAGCHNPGLILLILGNGEIETMLYPSGIFTDKASLFPQNLSWLRPLATTSMAASVPNKLWLGALSAAQNKDYLLKGGVRTKRQKLPAEYGTAFITGHSNGSVRIYDASHGDIQDNASFEVNLSRTLNKAKELAVDKISFAAETLELAVSIETGDVVLFKYEVNQFYSVENRPESGDLEMNFRRFSLNNTNGVLVDVRDRAPTGVRQGFMPSTAVHANKGKTSAINNSNIGFVGIAYAAGSLMLIDRRGPAIIYMENIREISGAQSACVTCIEFVIMEYGDDGYSSILMVCGTDMGEVITYKILPASGGKFDVQLMDITNVTSKGPIHKIDAFSKETKSSCLATIPKMQNLSKGLCIPGIVLITGFDDIRLITLGKSKSTHKGFKYPLAATGLSYISTVEKNNDRKNLTVIITLEINGHLRVFTIPDFKEQMSEHIPFPIAAKYITESSVLRNGDIAIRVSEFQASLFSTVKEQDTLAPVSDTLYINGIRIPYRPQVNSLQWARGTVYCTPAQLNELLGGVNRPASKYKESIIAEGSFSERSSDDNNANHPEHQYTKPTRKGRNSSYGVLRNVSRAVETRWDAVEDRFNDYATAMGETMNEAVEQTGKDVMKGALGF

Variants of: B1
Details: with sec9_yeast SEC9, P40357
sec9_yeast SEC9, P40357, sequence (P40357 whole entry): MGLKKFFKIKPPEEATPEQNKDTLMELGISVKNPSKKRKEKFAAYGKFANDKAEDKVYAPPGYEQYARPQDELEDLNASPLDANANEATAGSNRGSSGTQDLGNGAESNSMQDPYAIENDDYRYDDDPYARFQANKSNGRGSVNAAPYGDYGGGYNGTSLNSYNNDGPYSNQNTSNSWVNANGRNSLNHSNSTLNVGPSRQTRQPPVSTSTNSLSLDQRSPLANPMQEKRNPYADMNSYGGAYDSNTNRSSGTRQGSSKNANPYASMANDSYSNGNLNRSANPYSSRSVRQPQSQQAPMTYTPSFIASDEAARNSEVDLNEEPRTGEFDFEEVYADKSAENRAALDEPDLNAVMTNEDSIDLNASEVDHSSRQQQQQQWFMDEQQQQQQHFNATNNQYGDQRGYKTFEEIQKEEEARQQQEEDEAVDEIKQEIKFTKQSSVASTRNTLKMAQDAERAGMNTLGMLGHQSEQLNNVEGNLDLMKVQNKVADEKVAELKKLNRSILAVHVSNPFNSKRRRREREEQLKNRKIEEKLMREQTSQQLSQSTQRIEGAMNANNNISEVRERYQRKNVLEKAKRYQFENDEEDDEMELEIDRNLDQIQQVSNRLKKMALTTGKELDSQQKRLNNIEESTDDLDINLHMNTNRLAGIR

Variant	effect of a mutation on the interaction
E562A	decreasing interaction strength
Y700A	disrupting interaction strength
R664A	decreasing interaction strength
M764A	decreasing interaction strength
P721A	disrupting interaction strength
